The series concerns the molecule itself. As to the kind of experiment: amyloid fibre formation (thioflavin T fluorescence + electron microscopy + X-ray fibre diffraction); self-association into fibres; 50 uM protein in 1x PBS with 40 uM ThT, 37 °C, 700 rpm double orbital shaking with a PTFE bead, ~138 h; end-point samples imaged by negative-stain TEM; fibres diffracted (rings at 4.7 and 10 Å).

Where a chain is given by its changes, count along the chain named. Names and notes keep the numbering of the source.

B1: mCherry-fused low-complexity domain of TFG, residues 237-327, G269V (domain or fragment, human, UniProt Q92734 237-327, looked up)
chain: GQIEGQMYQQYQQQAGYGAQQPQAPPQQPQQYVIQYSASYSQQTGPQQPQQFQGYGQQPTSQAPAPAFSGQPQQLPAQPPQQYQASNYPAQ
notes: TRK-fused gene protein (TFG), human, low-complexity domain, residues 237-327, with the documented pathogenic mutation G269V (Charcot-Marie-Tooth disease type 2); also called TFG (237-327) G269V; mutant construct; source: E. coli BL21(DE3) Gold, purified (nickel-nitrilotriacetic acid, size-exclusion chromatography), dialyzed into PBS
Take B1: the binding result was “binds”.

B2: mCherry-fused low-complexity domain of TFG, residues 237-327, P285L (domain or fragment, human, UniProt Q92734 237-327, looked up)
chain: B1 chain with V33G, P49L
notes: also called TFG (237-327) P285L; mutant construct; source: E. coli BL21(DE3) Gold, purified (nickel-nitrilotriacetic acid, size-exclusion chromatography), dialyzed into PBS
B2: the binding result is reported as “binds”.

The record behind these values is PMC9108986, “Bioinformatic identification of previously unrecognized amyloidogenic proteins” (The Journal of Biological Chemistry, 2022).
